From patent US9090549B2, “1,4-naphthoquinones derivatives and therapeutic use thereof” (CENTRE NATIONAL DE LA RECHERCHE SCIENTIFIQUE (C.N.R.S.), priority 2008, dated 2015)

Substrate: CC1=C(C(=O)c2ccc(Br)cc2)C(=O)C2C=CC=CC2C1=O
Experiment: 1,4-Naphthoquinone reductase activity of P. falciparum glutathione reductase
Assay type: biochemical, Plasmodium falciparum
Details: other: pH 6.9, 100 μM NADPH, 1% DMSO
Procedure: The reduction assay mixture consisted of 100 mM potassium phosphate buffer pH 6.9, 200 mM KCl, 1 mM EDTA and 100 μM NADPH in a total volume of 1 mL. 1,4-naphthoquinone reductase activity was determined by recording the initial velocities in the presence of increasing naphthoquinone concentrations (0-300 μM). The 1,4-naphthoquinone was first dissolved in DMSO, and a final 1% DMSO concentration was kept constant in the 1,4-naphthoquinone reductase assay. For the determination of KM and Vmax values, the steady-state rates were fitted by using nonlinear regression analysis software (Kaleidagraph) to the Michaelis-Menten equation. From these values, the turnover number kcat and the catalytic efficiency kcat/KM were calculated.

B1: P. falciparum glutathione reductase (PfGR) (Plasmodium falciparum K1) (protein)
chain: VYDLIVIGGGSGGMAAARRAARHNAKVALVEKSRLGGTCVNVGCVPKKIMFNAASVHDILENSRHYGFDTKFSFNLPLLVERRDKYIQRLNNIYRQNLSKDKVDLYEGTASFLSENRILIKGTKDNNNKDNGPLNEEILEGRNILIAVGNKPVFPPVKGIENTISSDEFFNIKESKKIGIVGSGYIAVELINVIKRLGIDSYIFARGNRILRKFDESVINVLENDMKKNNINIVTFADVVEIKKVSDKNLSIHLSDGRIYEHFDHVIYCVGRSPDTENLKLEKLNVETNNNYIVVDENQRTSVNNIYAVGDCCMVKKSKEIEDLNLLKLYNEERYLNKKENVTEDIFYNVQLTPVAINAGRLLADRLFLKKTRKTNYKLIPTVIFSHPPIGTIGLSEEAAIQIYGKENVKIYESKFTNLFFSVYDIEPELKEKTYLKLVCVGKDELIKGLHIIGLNADEIVQGFAVALKMNATKKDFDETIPIHPTAAEEFLTLQPWMK
- Km: 6.1 µM
